Results as given in paper PMC6883840 (Proceedings of the National Academy of Sciences of the …, 2019).

T1: ThrB (homoserine kinase) (Escherichia coli, UniProt P00547)
T1 sequence (P00547 1-310): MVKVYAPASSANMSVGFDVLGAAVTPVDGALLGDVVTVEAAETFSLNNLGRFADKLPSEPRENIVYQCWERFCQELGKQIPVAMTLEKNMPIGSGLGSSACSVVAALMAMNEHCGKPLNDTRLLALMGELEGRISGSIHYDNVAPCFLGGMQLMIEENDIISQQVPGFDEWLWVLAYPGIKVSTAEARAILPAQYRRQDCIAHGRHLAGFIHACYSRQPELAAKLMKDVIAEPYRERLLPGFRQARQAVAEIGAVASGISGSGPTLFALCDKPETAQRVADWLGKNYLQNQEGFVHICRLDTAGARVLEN

B1: SerC (Escherichia coli K-12) (protein)
chain: AQIFNFSSGPAMLPAEVLKQAQQELRDWNGLGTSVMEVSHRGKEFIQVAEEAEKDFRDLLNVPSNYKVLFCHGGGRGQFAAVPLNILGDKTTADYVDAGYWAASAIKEAKKYCTPNVFDAKVTVDGLRAVKPMREWQLSDNAAYMHYCPNETIDGIAIDETPDFGADVVVAADFSSTILSRPIDVSRYGVIYAGAQKNIGPAGLTIVIVREDLLGKANIACPSILDYSILNDNGSMFNTPPTFAWYLSGLVFKWLKANGGVAEMDKINQQKAELLYGVIDNSDFYRNDVAKANRSRMNVPFQLADSALDKLFLEESFAAGLHALKGHRVVGGMRASIYNAMPLEGVKALTDFMVEFERRHG

Legend:
[1] = target: T1, ThrB (homoserine kinase); assay: […]-NMR of ATP to ADP conversion; assay type: biochemical; conditions: ATP hydrolysis without second substrate; 37 °C, 24 h
[2] = substrate: N[C@H](C(=O)O)[C@H](O)CO; assay: purified protein; conditions: reverse direction: 4-hydroxythreonine to (3R)-3,4-dihydroxy-2-oxobutanoate

Row | Molecule | 31P-NMR of ATP to ADP conversion [1] | Km [2] | kcat [2]
1 | Nc1ncnc2c1ncn2[C@@H]1O[C@H](COP(=O)(O)OP(=O)(O)OP(=O)(O)O)[C@@H](O)[C@H]1O [ATP] | hydrolysis of ATP in the active site of ThrB in the absence of a second substrate | – | –
2 | B1 | – | 2600 ± 700 µM | 2.0 ± 0.1 × 10^-5 s^-1
